Data reported in patent US20150010572A1 (SAMSUNG ELECTRONICS, published 2015).

T1: mutant Ang-2 protein, I434 substituted with alanine (FLAG-tagged at N-terminal) (human, UniProt O15123 281-496, limits assumed)
T1 construct: also called 1434
T1 chain: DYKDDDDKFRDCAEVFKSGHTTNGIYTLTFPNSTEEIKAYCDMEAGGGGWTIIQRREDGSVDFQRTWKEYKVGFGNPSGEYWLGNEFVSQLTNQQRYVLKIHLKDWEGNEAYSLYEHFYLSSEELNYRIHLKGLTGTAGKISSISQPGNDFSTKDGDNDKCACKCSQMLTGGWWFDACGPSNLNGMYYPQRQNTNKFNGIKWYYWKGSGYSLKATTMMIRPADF

T2: mutant Ang-2 protein, N421 substituted with alanine (FLAG-tagged at N-terminal) (human, UniProt O15123 281-496, limits assumed)
T2 chain: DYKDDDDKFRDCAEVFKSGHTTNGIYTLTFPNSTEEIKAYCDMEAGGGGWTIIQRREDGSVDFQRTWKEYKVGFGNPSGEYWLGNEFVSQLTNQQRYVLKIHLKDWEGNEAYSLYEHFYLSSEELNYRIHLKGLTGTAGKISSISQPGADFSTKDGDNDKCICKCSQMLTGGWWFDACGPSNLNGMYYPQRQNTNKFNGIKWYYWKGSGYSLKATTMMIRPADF

T3: mutant Ang-2 protein, F469 substituted with alanine (FLAG-tagged at N-terminal) (human, UniProt O15123 281-496, limits assumed)
T3 chain: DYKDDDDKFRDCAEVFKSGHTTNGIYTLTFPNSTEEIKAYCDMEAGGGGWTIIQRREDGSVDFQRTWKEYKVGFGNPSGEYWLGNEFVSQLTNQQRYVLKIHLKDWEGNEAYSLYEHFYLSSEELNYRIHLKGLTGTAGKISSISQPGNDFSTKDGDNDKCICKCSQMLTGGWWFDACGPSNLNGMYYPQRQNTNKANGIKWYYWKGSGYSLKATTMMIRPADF

T4: mutant Ang-2 protein, Q418 substituted with alanine (FLAG-tagged at N-terminal) (human, UniProt O15123 281-496, limits assumed)
T4 construct: also called Q418A mutant protein; Ang-2 protein having Q418A mutation
T4 chain: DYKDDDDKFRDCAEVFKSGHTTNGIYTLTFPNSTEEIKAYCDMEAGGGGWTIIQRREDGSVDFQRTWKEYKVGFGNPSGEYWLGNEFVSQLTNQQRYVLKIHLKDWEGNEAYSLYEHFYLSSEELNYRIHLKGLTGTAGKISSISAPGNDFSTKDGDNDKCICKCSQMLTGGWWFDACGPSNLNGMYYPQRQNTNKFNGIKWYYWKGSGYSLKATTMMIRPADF

T5: mutant Ang-2 protein, S417 substituted with alanine (FLAG-tagged at N-terminal) (human, UniProt O15123 281-496, limits assumed)
T5 chain: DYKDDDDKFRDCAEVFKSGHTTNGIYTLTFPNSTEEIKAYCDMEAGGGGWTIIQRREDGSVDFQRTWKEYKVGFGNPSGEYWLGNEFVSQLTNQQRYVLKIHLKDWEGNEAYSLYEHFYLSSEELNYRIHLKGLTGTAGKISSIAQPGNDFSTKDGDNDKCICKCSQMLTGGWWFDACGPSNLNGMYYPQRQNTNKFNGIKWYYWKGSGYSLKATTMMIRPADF


Columns and labels:
Test in all cases: ELISA, antibody coated, 250 ng FLAG-tagged mutant Ang-2, anti-FLAG-HRP, OD450 relative to native Ang-2
[1] = molecular target: mutant Ang-2 protein, A449 substituted with alanine (FLAG-tagged at N-terminal) (human) (UniProt O15123)
[2] = molecular target: T1, mutant Ang-2 protein, I434 substituted …
Protocol: (§1) Each well of a 96-well MaxiSorp™ flat-bottom plate (Nunc) was coated with 50 ul (microliter) of 1000 nM antibodies (Example 2). Then, the plate was washed five times with a 0.05% (v/v) Tween-20 containing PBS (PBST) and blocked with a 1% (v/v) BSA containing PBS at a room temperature for 2 hours. 250 ng of each mutant Ang-2 protein obtained by substituting S417, Q418, P419, N421, 1434, D448, A449, P452, Y460, N467, K468, or F469 residue of Ang-2 protein tagged with a FLAG sequence ([…], Sigma) at its N-terminal with alanine was added to each well of the plate, which was then allowed to react at a room temperature for 2 hours.
(§2) The plate was washed five times with a 0.05% (v/v) Tween-20 containing PBS, reacted with an anti-FLAG antibody (SIGMA) conjugated with HRP which was diluted in a 1% (v/v) BSA containing PBS at a ratio of 1:5,000 (v/v) at a room temperature for 1 hour, and washed five times with a 0.1% (v/v) Tween-20 containing PBS.
(§3) Finally, 50 ul of TMB substrates (Cell signaling) was added to each well of the plate to induce color development reaction at a room temperature for 3 min. and the reaction was ceased by the addition of 50 ul of Stop solution (Cell signaling) and then, OD450 values were measured on a plate reader (Molecular Devices). By comparing binding affinities with mutated Ang-2 to those of unmutated Ang-2, each epitope of Ang-2 antibodies was identified. The thus obtained measurement results of the binding affinities (%) of mutant Ang-2 against the binding affinity of the native Ang-2 are shown in the following Table 9.

[3] = molecular target: T2, mutant Ang-2 protein, N421 substituted …
Protocol: as §1, §2, §3

[4] = molecular target: T3, mutant Ang-2 protein, F469 substituted …
Protocol: as §1, §2, §3

[5] = molecular target: T4, mutant Ang-2 protein, Q418 substituted …
Protocol: as §1, §2, §3

[6] = molecular target: T5, mutant Ang-2 protein, S417 substituted …
Protocol: as §1, §2, §3

| Binder | % at RBD binding (mutant Ang-2 against native Ang-2) [1] [%] | % at RBD binding (mutant Ang-2 against native Ang-2) [2] [%] | % at RBD binding (mutant Ang-2 against native Ang-2) [3] [%] | % at RBD binding (mutant Ang-2 against native Ang-2) [4] [%] | % at RBD binding (mutant Ang-2 against native Ang-2) [5] [%] | % at RBD binding (mutant Ang-2 against native Ang-2) [6] [%] |
| --- | --- | --- | --- | --- | --- | --- |
| SAIT-Ang-2-AB-m8B3 (antibody, V domains shown, also called KCLRF-BP-00293) VH: DVQLQESGPGLVKPSQSLSLSCTVTGYSIASDYAWNWIRQFPGNKVEWMGYINYRGNTDYNPSLKSRSSINRDTSKNQFFLQLNSVTTGDTATYYCARGNFEGAMDYWGQGTSVTVSS VL: TIVMTQTPKFLLVSAGDRITITCKASQSVSNDVAWYQQKPGQSPKLLIYYASNRYPGVPDRFTGSGYGTDFTFTISTVQAEDLAVYFCQQDYTSPWTFGGGTELEIK | 88.5 | 99.4 | 102 | 106 | 4.1 | 95.4 |
| SAIT-Ang-2-AB-m2E7 (antibody, V domains shown, also called KCLRF-BP-00294) VH: DLQLQESGPGLVKPSQSLSLTCTVTGYSITSDYAWNWIRQFPGNKLEWMGYISYSGSTSYNPSLKSRISITRDTSKNQFFLQLNSLTTEDTATYYCARGDYGNYVGPMDYWGQGTSVTVSS VL: SIVMTQTPKFLLVSAGDRVTITCKASQSVSNDVAWYRQKPGQSPKLLIYYASNRYTGVPDRFTGSGYGTDFTFTISTVQAEDLAVYFCQQDYSSPLTFGARTKLELK | 90.9 | 102 | 98.9 | 102 | 0.6 | 98.3 |
